The target in assay [1] is T1, recombinant human IL-1β (human, UniProt P01584 117-269). Description: cell-based or functional assay.
The target in assay [2] is T2, recombinant cynomolgus IL-1α (cynomolgus, UniProt P79340 113-271).
T2 sequence (looked up): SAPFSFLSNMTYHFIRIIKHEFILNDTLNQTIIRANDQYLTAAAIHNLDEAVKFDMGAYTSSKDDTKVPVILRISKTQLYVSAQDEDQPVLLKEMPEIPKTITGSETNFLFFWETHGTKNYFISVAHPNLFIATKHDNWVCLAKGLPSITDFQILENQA
Description: cell-based or functional assay.

For assay [3], the target named is T3, recombinant cynomolgus IL-1β (cynomolgus, UniProt P79182 117-268).
T3 sequence (looked up): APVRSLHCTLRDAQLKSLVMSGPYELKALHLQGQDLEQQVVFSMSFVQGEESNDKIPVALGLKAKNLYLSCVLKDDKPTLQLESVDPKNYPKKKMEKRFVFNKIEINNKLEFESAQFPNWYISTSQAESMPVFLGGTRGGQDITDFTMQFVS
Description: cell-based or functional assay.

Assay [4] deals with T4, purified native human IL-1β (human, UniProt P01584 117-269). Put plainly: cell-based or functional assay.
Assay [5] has as its target T5, recombinant human IL-1α (human, UniProt P01583 113-271).
T5 sequence: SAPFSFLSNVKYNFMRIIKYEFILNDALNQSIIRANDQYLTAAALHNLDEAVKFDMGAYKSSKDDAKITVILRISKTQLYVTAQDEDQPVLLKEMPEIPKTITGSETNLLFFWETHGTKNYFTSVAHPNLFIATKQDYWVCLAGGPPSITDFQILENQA
Description: cell-based or functional assay.

Assay [6] has as its target T6, native human IL-1α present in crude supernatants (human, UniProt P01583 113-271, limits assumed).
T6 sequence (looked up): T5 sequence
Description: cell-based or functional assay.

In assay [7] the target is T1, recombinant human IL-1β. Put plainly: SPR (BIAcore), DVD-Ig captured via goat anti-human IgG Fc. How it is done: (§1) Goat IgGs specific to human IgG Fc were covalently linked to the carboxy methyl dextran matrix on the CMS biosensor chip via free amine groups using an amine coupling kit and the immobilization wizard option in the Biacore instruments controlling software. Specifically, carboxyl groups of the dextran matrix on the chip were activated with NHS and EDC. Goat anti-human IgG Fc antibodies (25 μg/mL), diluted in 10 mM sodium acetate, pH 4.5, were injected across the activated surface. Once the level of binding response reached the desired value, unreacted groups were deactivated by injection of 1M ethanolamine. For binding of IL-1α & IL-1β to captured Ig, a 1 μg/mL concentration of Ig in HBS-EP+ was injected over the goat anti-human IgG Fc surface at a flow rate of 10 μL/min for 1 minute. The net difference in the baseline signal and the signal after the completion of the Ig injection was taken to represent the amount of bound Ig.
(§2) The potency of the 5 DVD-Igs containing affinity matured h1B12.1 domains to recombinant and native IL-1 antigens was determined using the MRC-5 bioassay as shown in Table 24. The binding kinetics of the DVD-Igs to recombinant human and cynomolgus IL-1α and IL-1β were determined using surface plasmon resonance. In some cases, the off-rate could not be determined as they reached the limit of detection of the instrument.
Background: SPR reads the build-up and loss of mass on a sensor chip optically.

Assay [8] deals with T2, recombinant cynomolgus IL-1α. Described as above. The method, then:
as §1, §2

The target of assay [9] is T3, recombinant cynomolgus IL-1β. Described as above. The method, then: as §1, §2
Assay [10] concerns the target T5, recombinant human IL-1α. The description is as above. The method, then: as §1, §2
The target of assay [11] is T1, recombinant human IL-1β. Description: cell-based or functional assay. The source holds these as a separate data set.
Assay [12] addresses T3, recombinant cynomolgus IL-1β. Description: cell-based or functional assay. This is another data set of the same source.
The target in assay [13] is T4, purified native human IL-1β. Put plainly: cell-based or functional assay. This is another data set of the same source.
For assay [14], the target named is T1, recombinant human IL-1β. Description: indirect ELISA: mAb captured on goat anti-human IgG, biotinylated IL-1β titrated. The method, then:
(§3) An indirect ELISA was performed to assess the relative affinity of the affinity matured h1B12.1 mAbs to a human chimeric version of the murine 1B12 mAb. An ELISA plate was coated with goat anti-human IgG (Jackson Immunoresearch cat#109-005-098) at 0.5 ug/mL overnight. The plate was blocked with 5% milk for 1 hour and washed three times with TPBS. Affinity-matured h1B12.1 antibodies and human IgG control (Sigma cat#12511) were incubated on the plate for 30 min at 0.2 μg/mL and then the plates were washed three times. A titration of biotinylated human IL-1β or biotinylated cyno IL-1β was added to the plate, starting at 10 nM and decreasing in concentration following a series of 1:3 dilutions. Binding of biotinylated IL-1β was detected with a 1:10000 dilution of peroxidase-conjugated streptavidin (Jackson Immunoresearch cat#016-030-084) and TMB substrate (Invitrogen). The data were fit in Graphpad prism to determine the EC₅₀ values.
(In general: An ELISA detects its analyte on a solid surface through an enzyme-linked reagent.)

Assay [15] concerns the target T3, recombinant cynomolgus IL-1β. The description is as above. How it is done:
as §3

Positions count from the first letter of the chain named.

By Kd is commonly meant the free concentration of one partner at which half of the binding sites on the other are occupied at equilibrium, for simple one-to-one binding. The term koff denotes the rate constant with which the complex falls apart. Broadly, the kon is a measure of how fast the partners come together. For orientation: EC50 means the concentration giving half of the maximal effect.

B1: DVD1-h1B12.13-SS-X3, human anti-IL-1α/β DVD IgG1/k mut (234,235) (bispecific antibody)
heavy: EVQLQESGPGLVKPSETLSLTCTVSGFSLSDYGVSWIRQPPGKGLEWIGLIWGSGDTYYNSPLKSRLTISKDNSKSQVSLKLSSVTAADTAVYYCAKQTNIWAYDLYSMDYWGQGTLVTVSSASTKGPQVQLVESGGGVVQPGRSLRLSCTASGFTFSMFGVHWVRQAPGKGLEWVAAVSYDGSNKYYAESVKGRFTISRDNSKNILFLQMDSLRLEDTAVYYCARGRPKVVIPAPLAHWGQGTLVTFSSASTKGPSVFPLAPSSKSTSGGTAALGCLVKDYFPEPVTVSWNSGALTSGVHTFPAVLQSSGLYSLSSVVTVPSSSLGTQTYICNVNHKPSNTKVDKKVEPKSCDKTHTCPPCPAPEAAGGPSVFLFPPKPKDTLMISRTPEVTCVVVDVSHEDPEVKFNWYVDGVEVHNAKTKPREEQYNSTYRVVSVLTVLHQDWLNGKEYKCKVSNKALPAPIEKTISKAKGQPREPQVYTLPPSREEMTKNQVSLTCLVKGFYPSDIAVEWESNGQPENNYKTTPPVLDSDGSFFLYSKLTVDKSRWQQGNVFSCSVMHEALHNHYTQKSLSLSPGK
light: DIQMTQSPSSLSASVGDRVTITCQTSTDIDDDLNWYQQKPGKAPKLLISLASTLRPGVPSRFSGSGSGTDFTFTISSLQPEDFATYYCLQSDRLPLTFGQGTKLEIKRTVAAPDIQMTQSPSSVSASVGDRVTITCRASQGISSWLAWYQQKPGKAPKLLIYEASNLETGVPSRFSGSGSGSDFTLTISSLQPEDFATYYCQQTSSFLLSFGGGTKVEHKRTVAAPSVFIFPPSDEQLKSGTASVVCLLNNFYPREAKVQWKVDNALQSGNSQESVTEQDSKDSTYSLSSTLTLSKADYEKHKVYACEVTHQGLSSPVTKSFNRGEC
notes: also called PR-1358316
As to B1, the “Potency (IC50) pM, MRC-5 bioassay” value came out at 55.9 pM in [1]; 2440 pM in assay [2]; 3.62 pM in [3]; 1.64 pM in [4]; 45.4 pM in [5]; 24.4 pM in assay [6]. The Kd turned out to be 0.00022 nM in assay [7], 2.3 nM in [8], 0.0015 nM in [9] and 0.021 nM in assay [10]. For the same molecule, the koff was found to be 5.1e-06 s⁻¹ in assay [7], 0.00023 s⁻¹ in assay [8], 1.7e-05 s⁻¹ in assay [9] and 2.9e-06 s⁻¹ in assay [10]. Further, the on-rate (kon) in [7] was found to be 2.3e+07 M⁻¹ s⁻¹; in assay [8] it was 100000 M⁻¹ s⁻¹; in assay [9], 1.2e+07 M⁻¹ s⁻¹; in assay [10], 140000 M⁻¹ s⁻¹.

B2: DVD2-h1B12.21-SS-X3, human anti-IL-1α/β DVD IgG1/k mut (234,235) (bispecific antibody)
heavy: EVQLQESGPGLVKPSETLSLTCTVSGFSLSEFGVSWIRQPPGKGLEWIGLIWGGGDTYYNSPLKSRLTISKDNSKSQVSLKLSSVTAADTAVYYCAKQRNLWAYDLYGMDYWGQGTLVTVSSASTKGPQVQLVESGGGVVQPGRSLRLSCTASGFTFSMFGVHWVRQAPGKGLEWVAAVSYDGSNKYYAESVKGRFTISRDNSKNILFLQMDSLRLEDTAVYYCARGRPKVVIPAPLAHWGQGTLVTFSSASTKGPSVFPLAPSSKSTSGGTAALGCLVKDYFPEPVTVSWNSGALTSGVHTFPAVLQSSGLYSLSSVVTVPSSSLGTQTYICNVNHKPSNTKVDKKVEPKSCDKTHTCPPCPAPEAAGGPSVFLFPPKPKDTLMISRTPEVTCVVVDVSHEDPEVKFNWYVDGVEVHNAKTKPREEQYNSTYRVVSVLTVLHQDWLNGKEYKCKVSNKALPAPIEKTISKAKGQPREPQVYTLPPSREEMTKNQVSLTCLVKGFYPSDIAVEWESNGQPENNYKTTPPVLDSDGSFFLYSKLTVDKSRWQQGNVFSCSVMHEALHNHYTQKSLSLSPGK
light: B1 light with T27Q, D31M, L50Q, A51G, R55W, S91T, R93S, L94F
notes: also called PR-1358317
In the case of B2, the “Potency (IC50) pM, MRC-5 bioassay” value is 48.6 pM in assay [1]; 1640 pM in assay [2]; 1.86 pM in [3]; 1.91 pM in [4]; 42.8 pM in [5]; 72 pM in assay [6]. Further, the dissociation constant Kd was found to be 0.0002 nM in assay [7], 2 nM in assay [8], 0.0016 nM in assay [9] and 0.12 nM in [10]. Also, the off-rate (koff) in assay [7] came out at 5.1e-06 s⁻¹; in assay [8], 0.00021 s⁻¹; in assay [9], 1.8e-05 s⁻¹; in assay [10], 1.6e-05 s⁻¹. The kon is 2.5e+07 M⁻¹ s⁻¹ in assay [7], 100000 M⁻¹ s⁻¹ in assay [8], 1.1e+07 M⁻¹ s⁻¹ in assay [9] and 140000 M⁻¹ s⁻¹ in assay [10].

B3: DVD5-h1B12.A3-SS-X3, human anti-IL-1α/β DVD IgG1/k mut (234,235) (bispecific antibody)
heavy: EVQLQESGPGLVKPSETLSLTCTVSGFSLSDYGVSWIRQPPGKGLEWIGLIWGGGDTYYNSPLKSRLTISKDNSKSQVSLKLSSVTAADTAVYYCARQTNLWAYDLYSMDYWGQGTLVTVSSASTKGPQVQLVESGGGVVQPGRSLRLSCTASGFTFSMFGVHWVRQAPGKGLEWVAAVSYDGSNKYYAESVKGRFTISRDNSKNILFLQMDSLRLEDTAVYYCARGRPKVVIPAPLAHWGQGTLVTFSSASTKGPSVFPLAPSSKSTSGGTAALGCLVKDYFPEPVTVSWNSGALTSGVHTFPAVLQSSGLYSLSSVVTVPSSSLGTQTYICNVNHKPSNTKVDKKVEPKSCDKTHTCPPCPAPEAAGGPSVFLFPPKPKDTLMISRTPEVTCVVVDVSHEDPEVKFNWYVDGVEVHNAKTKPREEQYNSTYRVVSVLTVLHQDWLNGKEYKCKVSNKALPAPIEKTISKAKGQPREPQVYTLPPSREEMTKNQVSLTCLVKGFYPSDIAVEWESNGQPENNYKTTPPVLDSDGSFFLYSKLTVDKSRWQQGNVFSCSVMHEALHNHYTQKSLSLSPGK
light: B1 light with T25A, A51G
notes: also called PR-1358321
On to B3, for which the “Potency (IC50) pM, MRC-5 bioassay” value amounted to 51.2 pM in [1]; 1920 pM in assay [2]; 6.56 pM in [3]; 4.27 pM in assay [4]; 44.3 pM in assay [5]; 57.6 pM in [6]. Moreover, the dissociation constant (Kd) in [7] was determined as 0.0005 nM; in assay [8] it was 2.4 nM; in [9], 0.001 nM; in assay [10], 0.01 nM. The koff in assay [7] was determined as 1.3e-05 s⁻¹; in assay [8], 0.00027 s⁻¹; in assay [9], 1.3e-05 s⁻¹; in assay [10], 1.6e-06 s⁻¹. Also, the on-rate (kon) in [7] is 2.6e+07 M⁻¹ s⁻¹; in assay [8], 110000 M⁻¹ s⁻¹; in assay [9], 1.3e+07 M⁻¹ s⁻¹; in assay [10], 150000 M⁻¹ s⁻¹.

B4: DVD4-h1B12.A1-SS-X3, human anti-IL-1α/β DVD IgG1/k mut (234,235) (bispecific antibody)
heavy: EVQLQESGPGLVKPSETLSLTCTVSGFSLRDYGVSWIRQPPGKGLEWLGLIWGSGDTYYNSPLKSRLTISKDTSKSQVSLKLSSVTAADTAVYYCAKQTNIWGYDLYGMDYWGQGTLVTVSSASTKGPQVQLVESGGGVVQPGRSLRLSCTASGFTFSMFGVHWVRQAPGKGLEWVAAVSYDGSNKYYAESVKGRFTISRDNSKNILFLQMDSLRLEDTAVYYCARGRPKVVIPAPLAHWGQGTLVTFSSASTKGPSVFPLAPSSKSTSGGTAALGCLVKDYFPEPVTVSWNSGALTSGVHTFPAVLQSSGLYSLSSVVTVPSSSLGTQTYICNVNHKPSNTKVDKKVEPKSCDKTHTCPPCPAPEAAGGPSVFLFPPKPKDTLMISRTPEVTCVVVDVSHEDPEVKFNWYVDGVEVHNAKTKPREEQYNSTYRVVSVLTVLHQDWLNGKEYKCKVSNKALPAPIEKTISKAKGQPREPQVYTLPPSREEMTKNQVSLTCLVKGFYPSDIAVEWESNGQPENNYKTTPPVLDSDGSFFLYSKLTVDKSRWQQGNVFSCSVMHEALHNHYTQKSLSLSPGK
light: B1 light with T25A, T27Q, D31M, L50Q, S52N, R55P, R93W
notes: also called PR-1358319
Consider B4, for which the “Potency (IC50) pM, MRC-5 bioassay” value in [1] came out at 58.6 pM; in [2], 2580 pM; in assay [3] it was 4.02 pM; in assay [4] it was 2.46 pM; in assay [5], 38.6 pM; in assay [6], 50.9 pM. Moreover, the dissociation constant Kd was not above 0.00098 nM in assay [7], 2.6 nM in [8], 0.0018 nM in assay [9] and 0.2 nM in [10]. The off-rate constant (koff) in [7] is not above 1e-05 s⁻¹; in assay [8], 0.00035 s⁻¹; in assay [9] it was 9.6e-06 s⁻¹; in assay [10], 3.6e-05 s⁻¹. Further, the association rate constant (kon) in [7] is 1.1e+07 M⁻¹ s⁻¹; in assay [8], 130000 M⁻¹ s⁻¹; in [9] it was 5.3e+06 M⁻¹ s⁻¹; in assay [10] it was 180000 M⁻¹ s⁻¹.

B5: Humanized monoclonal antibody 1B12.1 (antibody, V domains shown)
VH: EVQLQESGPGLVKPSETLSLTCTVSGFSLSDYGVSWIRQPPGKGLEWLGLIWGGGDTYYNSPLKSRLTISKDNSKSQVSLKLSSVTAADTAVYYCAKQRTLWGYDLYGMDYWGQGTLVTVSS
VL: DTQVTQSPSSLSASVGDRVTITCITSTDIDVDMNWYQQKPGKPPKLLISQGNTLRPGVPSRFSSSGSGTDFTFTISSLQPEDFATYYCLQSDNLPLTFGQGTKLEIK
For the molecule B5, the figures for the “Potency IC50 (pM), MRC-5 bioassay (IL-8 secretion)” value in assay [11], in assay [12] and in assay [13] were 913 pM, 410 pM and 329 pM, respectively.

B6: h1B12-AM2, affinity-matured h1B12.1 IgG1/k mut (234,235) mAb (scFv clone 21) (antibody, V domains shown)
VH: B5 VH with D31E, Y32F, L48I, T100N, G103A
VL: DIQMTQSPSSLSASVGDRVTITCQTSQDIDMDLNWYQQKPGKAPKLLISQGSTLWPGVPSRFSGSGSGTDFTFTISSLQPEDFATYYCLQTDSFPLTFGQGTKLEIKR
notes: also called PR-1354591
In the case of B6, the EC50 is 0.026 nM in [14] and 0.034 nM in [15].

B7: h1B12-AM1, affinity-matured h1B12.1 IgG1/k mut (234,235) mAb (scFv clone 13) (antibody, V domains shown)
VH: B5 VH with L48I, G54S, R99T, T100N, L101I, G103A, G108S
VL: B6 VL with Q27T, M31D, Q50L, G51A, W55R, T91S, S93R, F94L
notes: also called PR-1354589
In the case of B7, the concentration for a half-maximal effect (EC50) came to 0.031 nM in [14] and 0.026 nM in assay [15].

B8: h1B12-AM4, affinity-matured h1B12.1 IgG1/k mut (234,235) mAb (scFv clone A1) (antibody, V domains shown)
VH: B5 VH with S30R, G54S, N73T, R99T, T100N, L101I
VL: B6 VL with T25A, G51A, S52N, W55P, T91S, S93W, F94L
notes: also called PR-1354594
With B8, the results for the concentration giving a half-maximal response (EC50) in assay [14] and in assay [15] were 0.031 nM and 0.025 nM, respectively.

B9: h1B12-AM3, affinity-matured h1B12.1 IgG1/k mut (234,235) mAb (scFv clone 34) (antibody, V domains shown)
VH: B5 VH with L48I, G54S, N73T, R99T, T100N, G103A, G108S
VL: B6 VL with T25A, M31D, Q50L, G51A, T53I, W55R, T91S
notes: also called PR-1354592
Take B9: the concentration for a half-maximal effect (EC50) in assay [14] was 0.033 nM; in assay [15], 0.032 nM.

(Values after patent US20140178389A1 (AbbVie / Abbott, published 2014).)
